Data on seven molecules can be found in patent US20140161798A1 (Merck Sharp & Dohme, published 2014).

The target in experiment [1] is mouse liver LDL receptor (C57BL/6j mice) (mouse) (UniProt P35951). Kind of experiment: cell-based or functional assay.
Experiment [2] deals with Purified PCSK9 carrying a C-terminal FLAG tag (UniProt Q8NBP7). The experiment is described as follows: AlphaScreen PCSK9-FLAG/His-LDLR; non-specific control; log[antibody] ug/ml -1.9909. (Bead proximity is the source of the signal in Alpha formats.)
Sequence of Purified PCSK9 carrying a C-terminal FLAG tag (UniProt Q8NBP7) (Q8NBP7 31-692 limits assumed): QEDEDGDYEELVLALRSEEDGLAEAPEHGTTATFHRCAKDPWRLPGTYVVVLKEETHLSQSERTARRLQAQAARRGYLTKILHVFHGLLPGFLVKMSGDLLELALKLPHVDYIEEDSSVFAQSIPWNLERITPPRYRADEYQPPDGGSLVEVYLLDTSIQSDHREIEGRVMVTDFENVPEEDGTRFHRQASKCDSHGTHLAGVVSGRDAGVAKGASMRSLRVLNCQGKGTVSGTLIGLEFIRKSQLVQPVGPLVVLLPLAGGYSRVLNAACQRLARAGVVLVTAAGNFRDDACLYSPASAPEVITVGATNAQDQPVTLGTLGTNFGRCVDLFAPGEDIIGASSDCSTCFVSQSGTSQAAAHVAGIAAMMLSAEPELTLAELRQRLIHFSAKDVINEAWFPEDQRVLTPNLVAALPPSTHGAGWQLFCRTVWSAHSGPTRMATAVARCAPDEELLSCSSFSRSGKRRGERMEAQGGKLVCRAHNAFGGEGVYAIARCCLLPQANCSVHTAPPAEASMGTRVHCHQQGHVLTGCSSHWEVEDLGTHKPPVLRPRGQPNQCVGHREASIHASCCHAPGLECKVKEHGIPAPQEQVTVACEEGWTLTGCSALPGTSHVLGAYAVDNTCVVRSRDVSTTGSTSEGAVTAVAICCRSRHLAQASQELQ
Experiment [3] shares this target. Kind of experiment: AlphaScreen PCSK9-FLAG/His-LDLR; non-specific control; log[antibody] ug/ml 0.394711.
For experiment [4] the target is unchanged. The experiment is described as follows: AlphaScreen PCSK9-FLAG/His-LDLR; non-specific control; log[antibody] ug/ml 0.871832.
Experiment [5] has the same target. Kind of experiment: AlphaScreen PCSK9-FLAG/His-LDLR; non-specific control; log[antibody] ug/ml 1.826075.
Experiment [6] shares this target. The experiment is described as follows: AlphaScreen PCSK9-FLAG/His-LDLR; non-specific control; log[antibody] ug/ml 0.394711. This is another data set of the same source.
Experiment [7] has the same target. Kind of experiment: AlphaScreen PCSK9-FLAG/His-LDLR; non-specific control; log[antibody] ug/ml -2.94514.
Experiment [8] shares this target. The experiment is described as follows: AlphaScreen PCSK9-FLAG/His-LDLR; non-specific control; log[antibody] ug/ml 1.348954.
For experiment [9] the target is unchanged. The experiment is described as follows: AlphaScreen PCSK9-FLAG/His-LDLR; non-specific control; log[antibody] ug/ml -0.08241.
For experiment [10] the target is unchanged. The experiment is described as follows: AlphaScreen PCSK9-FLAG/His-LDLR; non-specific control; log[antibody] ug/ml 0.871832. This is another data set of the same source.
For experiment [11] the target is unchanged. The experiment is described as follows: AlphaScreen PCSK9-FLAG/His-LDLR; non-specific control; log[antibody] ug/ml 1.826075. This is another data set of the same source.
The target is the same in experiment [12]. The experiment is described as follows: AlphaScreen PCSK9-FLAG/His-LDLR; non-specific control; log[antibody] ug/ml -1.03665.
For experiment [13] the target is unchanged. The experiment is described as follows: AlphaScreen PCSK9-FLAG/His-LDLR; non-specific control; log[antibody] ug/ml -0.55953.
The target is the same in experiment [14]. Kind of experiment: AlphaScreen PCSK9-FLAG/His-LDLR; non-specific control; log[antibody] ug/ml -2.46802.
The target is the same in experiment [15]. Kind of experiment: AlphaScreen PCSK9-FLAG/His-LDLR; non-specific control; log[antibody] ug/ml -1.9909. This is another data set of the same source.
The target is the same in experiment [16]. Kind of experiment: AlphaScreen PCSK9-FLAG/His-LDLR; non-specific control; log[antibody] ug/ml -1.03665. The source holds these as a separate data set.
Experiment [17] shares this target. The experiment is described as follows: AlphaScreen PCSK9-FLAG/His-LDLR; non-specific control; log[antibody] ug/ml -0.08241. This is another data set of the same source.
For experiment [18] the target is unchanged. The experiment is described as follows: AlphaScreen PCSK9-FLAG/His-LDLR; non-specific control; log[antibody] ug/ml -2.46802. This is another data set of the same source.
The target is the same in experiment [19]. The experiment is described as follows: AlphaScreen PCSK9-FLAG/His-LDLR; non-specific control; log[antibody] ug/ml 1.348954. The source holds these as a separate data set.
For experiment [20] the target is unchanged. Kind of experiment: AlphaScreen PCSK9-FLAG/His-LDLR; non-specific control; log[antibody] ug/ml -1.51377.
Experiment [21] has the same target. Kind of experiment: AlphaScreen PCSK9-FLAG/His-LDLR; non-specific control; log[antibody] ug/ml -0.55953. This is another data set of the same source.
Experiment [22] shares this target. Kind of experiment: AlphaScreen PCSK9-FLAG/His-LDLR; non-specific control; log[antibody] ug/ml -1.51377. This is another data set of the same source.
Experiment [23] addresses T1, Purified PCSK9 carrying a C-terminal FLAG tag (UniProt Q8NBP7 31-692).
T1 construct: also called PCSK9-FLAG; PCSK9-Flag; not shown: C-terminal FLAG tag
The experiment is described as follows: AlphaScreen, inhibition of PCSK9-Flag/His-tagged LDL receptor interaction, relative to no antibody. Here is the method: (§1) This technique required that “donor” and “acceptor” beads be brought into proximity via protein—protein interaction, resulting in increased luminescence (Ullman et al., Proc. Nat. Acad. Sci. (1994) 91:5426-5430). […] About 2.5 μl of biotinylated anti-Flag-M2 antibody (1.8 μg/ml) was added and the mixture incubated for 1 hour. Afterward 5 μl of streptavidin donor bead and nickel chelate acceptor bead (1:1 mixture) was added and the assay incubated overnight. AlphaScreen signal (counts per second) was analyzed using an EnVision microplate reader (Perkin-Elmer). All data points were determined in triplicate. Assays were carried out at 23° C. in buffer containing 25 mM HEPES, 0.1 M NaCl, pH 7.4, 0.1% BSA. The inhibition assays were determined similarly with slight adjustments to assay volumes and protein concentrations.

For experiment [24], the target named is T1, Purified PCSK9 carrying a C-terminal …. The experiment is described as follows: AlphaScreen, inhibition of PCSK9-Flag/His-tagged LDL receptor interaction. As to the method: as §1

Residue numbers refer to the chain shown, from its start.

T1 sequence (Q8NBP7 31-692 limits assumed): as above
Sequence of mouse liver LDL receptor (C57BL/6j mice) (mouse) (P35951 22-862): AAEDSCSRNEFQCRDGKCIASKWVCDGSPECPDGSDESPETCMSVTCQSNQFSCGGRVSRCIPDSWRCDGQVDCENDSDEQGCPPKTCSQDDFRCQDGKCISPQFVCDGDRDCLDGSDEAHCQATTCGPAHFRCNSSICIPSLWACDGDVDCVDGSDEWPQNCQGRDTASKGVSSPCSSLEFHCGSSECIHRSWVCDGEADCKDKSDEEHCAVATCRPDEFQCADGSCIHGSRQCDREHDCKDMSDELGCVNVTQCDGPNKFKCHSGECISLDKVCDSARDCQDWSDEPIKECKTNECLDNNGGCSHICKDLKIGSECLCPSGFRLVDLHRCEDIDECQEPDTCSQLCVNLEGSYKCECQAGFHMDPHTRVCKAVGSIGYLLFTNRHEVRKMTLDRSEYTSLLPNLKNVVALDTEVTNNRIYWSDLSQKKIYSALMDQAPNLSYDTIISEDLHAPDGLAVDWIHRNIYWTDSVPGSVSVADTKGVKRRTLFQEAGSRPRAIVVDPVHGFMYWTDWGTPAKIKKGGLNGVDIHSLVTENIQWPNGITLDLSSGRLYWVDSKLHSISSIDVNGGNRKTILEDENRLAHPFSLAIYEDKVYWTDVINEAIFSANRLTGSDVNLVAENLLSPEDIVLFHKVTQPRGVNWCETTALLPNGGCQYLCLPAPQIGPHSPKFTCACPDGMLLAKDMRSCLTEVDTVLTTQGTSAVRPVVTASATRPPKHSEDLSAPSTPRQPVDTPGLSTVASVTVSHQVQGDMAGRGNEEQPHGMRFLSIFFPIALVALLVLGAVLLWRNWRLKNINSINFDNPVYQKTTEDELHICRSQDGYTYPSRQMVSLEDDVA

In turn, “human PCSK9 Protein (injected intravenously into mice) (from UniProt Q8NBP7 31-692)” returned a Mean liver LDLR/GAPDH, mice given Saline and PCSK9 (western blot, lightest exposure) in experiment [1] of 0.081 AU.
Consider “human PCSK9 Protein (injected intravenously into mice) (from UniProt Q8NBP7 31-692) (enzyme)”, for which, in experiment [1], the % Change of mean liver LDLR/GAPDH against saline only, mice given Saline and PCSK9 (darker exposure) was -78.8%; the % Change of mean liver LDLR/GAPDH against saline only, mice given Saline and PCSK9 (lightest exposure) was -82%; the Mean liver LDLR/GAPDH, mice given Saline and PCSK9 (western blot, darker exposure of LDLR panel) turned out to be 0.123 AU.
With non-specific IgG control (antibody), the AlphaScreen mean counts in experiment [2] is 135000 counts; in experiment [3], 136000 counts; in [4], 79600 counts; in experiment [5], 114000 counts; in experiment [6], 79600 counts; in experiment [7], 82100 counts. For the same molecule, the AlphaScreen mean counts in experiment [8] amounted to 135000 counts; in [9] it was 82800 counts; in experiment [10], 140000 counts; in experiment [11] it was 61900 counts; in [12], 84400 counts; in [13] it was 88100 counts. The AlphaScreen mean counts in [14] turned out to be 78200 counts; in [15], 80700 counts; in experiment [16] it was 127000 counts; in experiment [17], 140000 counts; in [18], 140000 counts; in experiment [19] it was 74400 counts. Besides, the AlphaScreen mean counts in experiment [20] stood at 134000 counts; in [21], 139000 counts; in [22], 83100 counts.

B1: 77D10 anti-PCSK9 antibody (IgG2b) (antibody, V domains shown)
VH: EVQLQQSGAELVRSGASVKLSCTTSGFNIKDYYIHWVKQRPEQGLEWIGWIDPENGDTEYAPKFQGKATMTADTSSNTAYLQLSSLTSADTAVYYCNAYYRYDDGTWFPYWGQGTLVTVSA
VL: DIQLTQSPASLSASVGETVTITCRASGNIHSYLAWYQQKQGKSPQFLVDNAKTLPDGVPSRFSVSGSGTQYSLKINSLQPEDFGTYYCQHFWNTPWTFGGGTKLEIKR
As usually defined, the % inhibition is the relative decrease from the control value, in per cent. Lower therefore signals a response near the control. The term IC50 denotes the concentration needed to halve the response being measured. Higher therefore signals weaker potency in that assay. In the case of B1, the “% inhibition at 450 nM of antibody” value in experiment [23] was 62%. 38 nM corresponded to half-maximal inhibition in [24] (IC50).

B2: 29C10 anti-PCSK9 antibody (IgG2a) (antibody, V domains shown)
VH: EVLLQQSVAELVRPGASVRLSCTASGFNIKDTYIHWVRQRPEQGLEWFGWIDPANGYTKYAPNFQGKATLTTDTSSNTAYLHLSSLTSEDSAIYYCARGYYRYYSLDYWGQGTSVTVSS
VL: DIQMTQTTSSLSASLGDRVTISCRASQDISNYLNWYQQKPDGTVKLLIYYSSRLHSGVPSRFSGRGSGTDYSLTISTLEQEDIATYFCQQGKTLPLTFGAGTKLELKR
For B2, the “% inhibition at 450 nM of antibody” value in experiment [23] was found to be 71%. In [24], this molecule showed an IC50 of 13 nM.

B3: 75B9 anti-PCSK9 antibody (IgG2a) (antibody, V domains shown)
VH: EVQLQQSGADLVKPGASVKLSCTASGFNIKDTYIHWVKQRPEQGLEWIGRIDPANGHTEYDPKFQGRATLTTDTSSNTAYLQLFSLTSEDSAVYFCARSYYGSIFAYWGQGTLVTVSA
VL: QIVLTQSPAIMSASPGEKVTISCSASSSVSYLFWYQQKPGSSPKPWIFRTSYLASGVPARFSGSGSGTSFSLTISSMEAEDAATYYCHQYHTYPPTFGGGTKLEIKR
As for B3, the “% inhibition at 450 nM of antibody” value in experiment [23] came to 100%. This molecule gave an IC50 in experiment [24] of 0.5 nM.

B4: 11B5 anti-PCSK9 antibody (IgG2a) (antibody, V domains shown)
VH: EVQLQQSGAELVKPGASVTLSCTASGFNIKDTYMHWVNQRPEQGLVWIGRIDPANGHTEYDPKFQDKATITTDTSSNTAYLHLSSLTSGDTAVYYCARSYFGSIFAYWGQGTLVTVSA
VL: B3 VL with F33Y, T50S, Y52H, L53R, F70Y, H91Q, T92S
Consider B4, for which the “% inhibition at 450 nM of antibody” value in experiment [23] is 100%. In experiment [24], this molecule showed a half-inhibitory concentration (IC50) of 0.4 nM.
